According to paper PMC10272835 (2023):
No end group written: not given here.

B1: phosphorylated PD1 ITIM peptide (peptide)
chain: KEDPSAVPVFSVDYGELDFQWRE
modifications: also: phosphorylated, residue not given here, biotinylated, site not given here
B2: phosphorylated PD1 ITSM peptide (peptide)
chain: KTPEPPVPSVPEQTEYATIVFPSGMGTSS
modifications: also: phosphorylated, residue not given here, biotinylated, position not given here

Experiments:
Test in all cases: SPR
[1] = molecular target: T1, C-terminal SH2 domain of SHP2
T1 chain: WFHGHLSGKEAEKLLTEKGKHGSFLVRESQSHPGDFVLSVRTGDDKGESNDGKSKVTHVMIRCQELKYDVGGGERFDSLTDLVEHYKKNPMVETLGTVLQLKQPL

[2] = molecular target: T2, N-terminal SH2 domain of SHP2
T2 chain: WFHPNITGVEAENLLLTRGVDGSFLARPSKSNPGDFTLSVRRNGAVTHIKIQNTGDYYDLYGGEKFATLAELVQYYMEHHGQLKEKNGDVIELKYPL

dual SH2 domains of SHP2 [3] = molecular target: T3, dual SH2 domains of SHP2
T3 chain: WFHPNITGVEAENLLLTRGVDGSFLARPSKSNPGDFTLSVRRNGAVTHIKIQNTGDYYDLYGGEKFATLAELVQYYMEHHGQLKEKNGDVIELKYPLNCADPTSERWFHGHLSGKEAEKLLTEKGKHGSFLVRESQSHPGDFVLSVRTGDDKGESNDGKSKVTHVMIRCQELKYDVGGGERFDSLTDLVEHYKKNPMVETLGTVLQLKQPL

[4] = molecular target: T1, C-terminal SH2 domain of SHP2
[5] = molecular target: T2, N-terminal SH2 domain of SHP2
dual SH2 domains of SHP2 [6] = molecular target: T3, dual SH2 domains of SHP2

Binder	Kd [1] [nM]	Kd [2] [nM]	Kd (dual SH2 domains of SHP2 [3]) [nM]	koff [4] [s⁻¹]	koff [5] [s⁻¹]	koff (dual SH2 domains of SHP2 [6]) [s⁻¹]
B1	0.638	3.35	1.84	0.00329	0.000297	0.000121
B2	15.1	0.442	3.01			
